93 variants from IntAct's records for PubMed 29039417 can be followed below.

B1: Isoform 2 of Bardet-Biedl syndrome 7 protein (Homo sapiens), Q8IWZ6-2 (parent)
chain: MDLILNRMDYLQVGVTSQKTMKLIPASRHRATQKVVIGDHDGVVMCFGMKKGEAAAVFKTLPGPKIARLELGGVINTPQEKIFIAAASEIRGFTKRGKQFLSFETNLTESIKAMHISGSDLFLSASYIYNHYCDCKDQHYYLSGDKINDVICLPVERLSRITPVLACQDRVLRVLQGSDVMYAVEVPGPPTVLALHNGNGGDSGEDLLFGTSDGKLALIQITTSKPVRKWEIQNEKKRGGILCIDSFDIVGDGVKDLLVGRDDGMVEVYSFDNANEPVLRFDQMLSESVTSIQGGCVGKDSYDEIVVSTYSGWVTGLTTEPIHKESGPGEELKINQEMQNKISSLRNELEHLQYKVLQERENYQQSSQSSKAKSAVPSFGINDKFTLNKDDASYSLILEVQTAIDNVLIQSDVPIDLLDVDKNSAVVSFSSCDSESNDNFLLATYRCQADTTRLELKIRSIEGQYGTLQAYVTPRIQPKTCQVRQYHIKPLSLHQRTHFIDHDRPMNTLTLTGQFSFAEVHSWVVFCLPEVPEKPPAGECVTFYFQNTFLDTQLESTYRKGEGVFKSDNISTISILKDVLSKEATKRKINLNISYEINEVSVKHTLKLIHPKLEYQLLLAKKVQLIDALKELQIHEGNTNFLIPEYHCILEEADHLQEEYKKQPAHLERLYG
partner: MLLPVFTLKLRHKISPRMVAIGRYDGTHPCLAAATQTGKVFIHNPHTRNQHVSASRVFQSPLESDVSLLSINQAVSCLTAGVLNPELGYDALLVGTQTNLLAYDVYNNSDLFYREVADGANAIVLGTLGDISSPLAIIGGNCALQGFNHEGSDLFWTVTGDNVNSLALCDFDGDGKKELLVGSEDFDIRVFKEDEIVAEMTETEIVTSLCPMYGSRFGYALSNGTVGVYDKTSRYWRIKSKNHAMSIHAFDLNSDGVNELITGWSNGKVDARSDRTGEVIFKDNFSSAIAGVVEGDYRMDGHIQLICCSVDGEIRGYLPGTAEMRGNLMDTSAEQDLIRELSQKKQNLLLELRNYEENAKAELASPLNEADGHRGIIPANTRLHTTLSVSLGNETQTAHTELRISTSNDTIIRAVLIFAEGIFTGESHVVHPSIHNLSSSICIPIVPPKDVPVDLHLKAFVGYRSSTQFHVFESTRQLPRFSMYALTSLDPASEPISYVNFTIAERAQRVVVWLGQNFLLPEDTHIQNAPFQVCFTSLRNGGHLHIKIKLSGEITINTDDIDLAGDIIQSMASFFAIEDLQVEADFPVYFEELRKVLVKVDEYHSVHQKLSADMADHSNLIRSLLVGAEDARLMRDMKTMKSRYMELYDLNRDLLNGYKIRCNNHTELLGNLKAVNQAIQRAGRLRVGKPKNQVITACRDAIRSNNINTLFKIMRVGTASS

The variants in this test derive from B1. As to conditions: with bbs2_human BBS2, Q9BXC9.
Turning to K588A, the “effect of a mutation on the interaction” value is recorded as “with no effect”. For the variant S556K, the “effect of a mutation on the interaction” value was “with no effect”. Turning to S556A, the “effect of a mutation on the interaction” value is “with no effect”. As for S556E, the “effect of a mutation on the interaction” value is reported as “with no effect”. In the case of T605K it was “with no effect”; in that of T605A, “with no effect”; in that of T605E, “with no effect”.

Consider G561K, for which the “effect of a mutation on the interaction” value is reported as “with no effect”. For G561E, the “effect of a mutation on the interaction” value is reported as “with no effect”. In the case of G561R, the “effect of a mutation on the interaction” value was “disrupting interaction strength”.

On to G561A, for which the “effect of a mutation on the interaction” value is “with no effect”.

Turning to G561S, the “effect of a mutation on the interaction” value was “disrupting interaction strength”. Consider E583A, for which the “effect of a mutation on the interaction” value was “with no effect”. Turning to E583K, the “effect of a mutation on the interaction” value is “with no effect”.

Take S594E: the “effect of a mutation on the interaction” value is “with no effect”. In the case of S594A, the “effect of a mutation on the interaction” value is “with no effect”. Consider S594K, for which the “effect of a mutation on the interaction” value is recorded as “with no effect”.

Turning to N569E, the “effect of a mutation on the interaction” value is given as “with no effect”.

With N569K, the “effect of a mutation on the interaction” value was “with no effect”. As for N569A, the “effect of a mutation on the interaction” value is “with no effect”.

For F543K, the “effect of a mutation on the interaction” value is recorded as “with no effect”. Regarding F543E, the “effect of a mutation on the interaction” value is reported as “with no effect”.

On to F543A, for which the “effect of a mutation on the interaction” value is “with no effect”. The entry for I570K is “with no effect”; for I570E it is “with no effect”; for I570A it is “with no effect”. Turning to I570L, the “effect of a mutation on the interaction” value is listed as “disrupting interaction strength”. The entry for T557A is “with no effect”; for T557K it is “with no effect”; for T557E it is “with no effect”. In the case of L576E it was “with no effect”. The entry for L576K is “with no effect”; for L576A it is “with no effect”.

Take K566A: the “effect of a mutation on the interaction” value was “with no effect”. In the case of K566E it was “with no effect”; in that of Y595A, “with no effect”. In the case of Y595K, the “effect of a mutation on the interaction” value is given as “with no effect”. With Y595E, the “effect of a mutation on the interaction” value is “with no effect”. With F565E, the “effect of a mutation on the interaction” value was “with no effect”. Take F565K: the “effect of a mutation on the interaction” value was “with no effect”. In the case of F565A it was “with no effect”. In the case of V579K, the “effect of a mutation on the interaction” value is on record as “with no effect”. As to V579E, the “effect of a mutation on the interaction” value is recorded as “with no effect”. In the case of V579A it was “with no effect”; in that of S574K, “with no effect”; in that of S574A, “with no effect”.

Consider S574E, for which the “effect of a mutation on the interaction” value is “with no effect”. For Y544K, the “effect of a mutation on the interaction” value is recorded as “with no effect”. Take Y544A: the “effect of a mutation on the interaction” value is “with no effect”. Take Y544E: the “effect of a mutation on the interaction” value was “with no effect”. L591K: the “effect of a mutation on the interaction” value is “with no effect”. L591E: the “effect of a mutation on the interaction” value is on record as “with no effect”. In the case of L591A it was “with no effect”; in that of K560A, “with no effect”; in that of K560E, “with no effect”. As to V602K, the “effect of a mutation on the interaction” value is on record as “with no effect”. For V602E, the “effect of a mutation on the interaction” value is “with no effect”. In the case of V602A, the “effect of a mutation on the interaction” value is “with no effect”. The entry for E555K is “with no effect”; for E555A it is “with no effect”; for S601E it is “with no effect”.

With S601K, the “effect of a mutation on the interaction” value is listed as “with no effect”.

As to S601A, the “effect of a mutation on the interaction” value is “with no effect”.

Q553A: the “effect of a mutation on the interaction” value is reported as “with no effect”. Regarding Q553K, the “effect of a mutation on the interaction” value is listed as “with no effect”. Q553E: the “effect of a mutation on the interaction” value is listed as “with no effect”.

Consider V564A, for which the “effect of a mutation on the interaction” value is reported as “with no effect”. With V564K, the “effect of a mutation on the interaction” value is “with no effect”. For the variant V564E, the “effect of a mutation on the interaction” value is on record as “with no effect”. On to T585K, for which the “effect of a mutation on the interaction” value is reported as “with no effect”.

Consider T585A, for which the “effect of a mutation on the interaction” value is listed as “with no effect”. In the case of T585E it was “with no effect”; in that of E562K, “with no effect”; in that of E562A, “with no effect”. For the variant I597E, the “effect of a mutation on the interaction” value is “with no effect”. The entry for I597A is “with no effect”; for I597K it is “with no effect”. For L580A, the “effect of a mutation on the interaction” value is on record as “with no effect”.

L580K: the “effect of a mutation on the interaction” value was “with no effect”. Consider L580E, for which the “effect of a mutation on the interaction” value is given as “with no effect”. Turning to N547A, the “effect of a mutation on the interaction” value is reported as “with no effect”.

As for N547E, the “effect of a mutation on the interaction” value is on record as “with no effect”. With N547K, the “effect of a mutation on the interaction” value is recorded as “with no effect”.

On to D551E, for which the “effect of a mutation on the interaction” value is “with no effect”. For the variant D551K, the “effect of a mutation on the interaction” value is on record as “with no effect”. Consider D551A, for which the “effect of a mutation on the interaction” value is “with no effect”. Turning to N592K, the “effect of a mutation on the interaction” value is recorded as “with no effect”. In the case of N592A it was “with no effect”. Take N592E: the “effect of a mutation on the interaction” value was “with no effect”. I575A: the “effect of a mutation on the interaction” value is “with no effect”. In the case of I575E it was “with no effect”. As to I575K, the “effect of a mutation on the interaction” value is on record as “with no effect”. Consider L606A, for which the “effect of a mutation on the interaction” value is given as “with no effect”.
